{
  "source": "patent US20040096444A1",
  "about": "(DUKE UNIVERSITY, published 2004)",
  "binders": {"B1": {"name": "plasminogen kringle 5 (K5), purified from pepsin digestion of human mini-Pg (ligand, UniProt P00747 481-560, looked up)", "chain": "CMFGNGKGYRGKRATTVTGTPCQDWAAQEPHRHSIFTPETNPRAGLEKNYCRNPDGDVGGPWCYTTNPRKLYDYCDVPQC", "modifications": "125I-labeled Bolton Hunter reagent (labelled form used in the binding assays)", "notes": "domain: kringle 5; Proteolytic fragment (elastase, then pepsin) of purified human Pg 2; also called Pg kringle 5; angiostatin kringle-5"}},
  "target": "T1, VDAC1 on the surface of human umbilical vein endothelial cells (HUVEC) (human, UniProt P21796 2-283)",
  "T1 construct": "Endogenous protein on primary HUVEC; The assays were done on whole cells; also called K5 receptor on HUVEC; plasma membrane VDAC1",
  "T1 sequence (P21796 2-283)": "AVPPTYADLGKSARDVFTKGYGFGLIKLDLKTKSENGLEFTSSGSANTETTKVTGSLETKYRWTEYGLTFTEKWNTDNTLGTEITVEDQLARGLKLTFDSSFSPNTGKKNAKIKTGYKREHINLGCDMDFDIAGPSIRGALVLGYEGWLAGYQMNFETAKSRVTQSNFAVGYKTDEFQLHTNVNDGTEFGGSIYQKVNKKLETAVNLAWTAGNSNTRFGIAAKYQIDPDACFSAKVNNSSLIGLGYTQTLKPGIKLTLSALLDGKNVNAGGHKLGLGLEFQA",
  "experiment": "125I-K5 saturation binding to HUVEC monolayers at 4 C, fit to the Langmuir isotherm",
  "protocol": "Ligand binding analysis. Cells were grown in tissue culture plates until the monolayers were confluent. The cells were washed in HBSS. […] Wells were stripped from the plates and radioactivity was determined. Molecules of ligand bound were calculated after substraction of nonspecific binding measured in the presence of 50 mM p-amino-benzamidine.",
  "data": [
    {"binder": "B1", "values": [
      {"measurement": "Kd", "value": 28, "unit": "nM"}
    ]}
  ]
}
